Measurements: patent publication EP4566619A1 (AvenCell Therapeutics Inc., dated 2025)

How the values were obtained:
CD19 [1] = target: T1, CD19 (UniProt P15391 20-556); assay: cellular binding assay, flow cytometry (gMFI) on OCI-AML3-CD19 cells
T1 construct: whole, on cells; also called CD19 on OCI-AML3-CD19 cells; Oci-AML-CD19
T1 sequence (looked up): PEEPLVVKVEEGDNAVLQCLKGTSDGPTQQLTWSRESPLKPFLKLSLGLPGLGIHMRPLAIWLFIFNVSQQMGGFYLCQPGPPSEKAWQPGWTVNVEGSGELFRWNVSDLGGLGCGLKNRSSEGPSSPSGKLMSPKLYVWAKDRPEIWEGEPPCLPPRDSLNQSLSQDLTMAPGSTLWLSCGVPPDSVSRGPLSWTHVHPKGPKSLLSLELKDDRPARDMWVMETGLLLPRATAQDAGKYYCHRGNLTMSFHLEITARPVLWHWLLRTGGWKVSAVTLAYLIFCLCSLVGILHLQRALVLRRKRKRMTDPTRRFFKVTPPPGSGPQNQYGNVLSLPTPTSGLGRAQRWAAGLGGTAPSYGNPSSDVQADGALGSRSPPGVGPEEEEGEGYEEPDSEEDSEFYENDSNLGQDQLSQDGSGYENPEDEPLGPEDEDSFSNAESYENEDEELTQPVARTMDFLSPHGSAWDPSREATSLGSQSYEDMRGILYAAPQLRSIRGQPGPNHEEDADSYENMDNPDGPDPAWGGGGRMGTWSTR

CD20 [2] = target: T2, CD20 (UniProt P11836 1-297, limits assumed); assay: cell-based or functional assay
T2 sequence (looked up): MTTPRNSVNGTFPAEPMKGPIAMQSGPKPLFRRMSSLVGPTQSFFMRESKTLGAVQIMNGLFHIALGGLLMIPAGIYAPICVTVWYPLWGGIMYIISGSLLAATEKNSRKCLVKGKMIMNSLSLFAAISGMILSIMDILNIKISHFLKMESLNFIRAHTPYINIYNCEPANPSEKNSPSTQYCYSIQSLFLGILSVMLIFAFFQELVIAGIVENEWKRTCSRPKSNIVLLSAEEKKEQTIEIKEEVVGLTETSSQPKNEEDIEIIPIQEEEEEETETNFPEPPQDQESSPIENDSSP

CD19 [3] = target: T1, CD19; assay: cell-based or functional assay
CD20 [4] = target: T2, CD20; assay: cellular binding assay, flow cytometry (gMFI) on OCI-AML3-CD20 cells

B1: R-TM-19/20_21 (other)
chain 1: not shown
chain 2: GQVQLVQSGAEVKKPGASVKVSCKASGYTFTHYYIYWVRQAPGQGLEWMGGVNPSNGGTHFNEKFKSRVTMTRDTSISTAYMELSRLRSDDTAVYYCARSEYDYGLGFAYWGQGTLVTVSSASTKGPSVFPLAPSSKSTSGGTAALGCLVKDYFPEPVTVSWNSGALTSGVHTFPAVLQSSGLYSLSSVVTVPSSSLGTQTYICNVNHKPSNTKVDKKVEPKSCDKTHTCPPCPAPPVAGPSVFLFPPKPKDTLMISRTPEVTCVVVDVSHEDPEVKFNWYVDGVEVHNAKTKPREEQYNSTYRVVSVLTVLHQDWLNGKEYKCKVSNKGLPSSIEKTISKAKGQPREPQVYTLPPSRDELTKNQVSLWCLVKGFYPSDIAVEWESNGQPENNYKTTPPVLDSDGSFFLYSKLTVDKSRWQQGNVFSCSVMHEALHNHYTQKSLSLSPGK
chain 3: GQVQLVESGGGLVQPGGSLRLSCAASGRTFSNYNMGWFRQAPGQGLEFVAAIDWSGGSPYYADSVKGRFTISRDNSKNTLYLQMNSLRAEDTAVYYCAAPLSYGSTWLADYWGQGTLVTVSSEPKSCDKTHTCPPCPAPPVAGPSVFLFPPKPKDTLMISRTPEVTCVVVDVSHEDPEVKFNWYVDGVEVHNAKTKPREEQYNSTYRVVSVLTVLHQDWLNGKEYKCKVSNKGLPSSIEKTISKAKGQPREPQVYTLPPSRDELTKNQVSLSCAVKGFYPSDIAVEWESNGQPENNYKTTPPVLDSDGSFFLVSKLTVDKSRWQQGNVFSCSVMHEALHNHYTQKSLSLSPGK
notes: Three-chain CD19/CD20 targeting module
EC50 (CD19 [1]): 2.2 nM | CD20 killing EC50 [pM] (CD20 [2]): 12.6 pM | CD19 killing EC50 [pM] (CD19 [3]): 1.4 pM | EC50 (CD20 [4]): 53.8 nM

B2: R-TM-19/20_23 (other)
chain 1: not shown
chain 2: GQVQLVQSGAEVKKPGASVKVSCKASGYTFTHYYIYWVRQAPGQGLEWMGGVNPSNGGTHFNEKFKSRVTMTRDTSISTAYMELSRLRSDDTAVYYCARSEYDYGLGFAYWGQGTLVTVSSASTKGPSVFPLAPSSKSTSGGTAALGCLVKDYFPEPVTVSWNSGALTSGVHTFPAVLQSSGLYSLSSVVTVPSSSLGTQTYICNVNHKPSNTKVDKKVEPKSCDKTHTCPPCPAPPVAGPSVFLFPPKPKDTLMISRTPEVTCVVVDVSHEDPEVKFNWYVDGVEVHNAKTKPREEQYNSTYRVVSVLTVLHQDWLNGKEYKCKVSNKGLPSSIEKTISKAKGQPREPQVYTLPPSRDELTKNQVSLWCLVKGFYPSDIAVEWESNGQPENNYKTTPPVLDSDGSFFLYSKLTVDKSRWQQGNVFSCSVMHEALHNHYTQKSLSLSPGK
chain 3: GQVQLVESGGGLVQPGGSLRLSCAASGRTFSNYNMGWFRQAPGQGLEFVAAIDWSGGSPYYAASVRGRFTISRDNSKNTLYLQMNSLRAEDTAVYYCAAPLSYGSTWLADYWGQGTLVTVSSEPKSCDKTHTCPPCPAPPVAGPSVFLFPPKPKDTLMISRTPEVTCVVVDVSHEDPEVKFNWYVDGVEVHNAKTKPREEQYNSTYRVVSVLTVLHQDWLNGKEYKCKVSNKGLPSSIEKTISKAKGQPREPQVYTLPPSRDELTKNQVSLSCAVKGFYPSDIAVEWESNGQPENNYKTTPPVLDSDGSFFLVSKLTVDKSRWQQGNVFSCSVMHEALHNHYTQKSLSLSPGK
notes: as for B1
EC50 (CD19 [1]): 3.4 nM | CD20 killing EC50 [pM] (CD20 [2]): 2.1 pM | CD19 killing EC50 [pM] (CD19 [3]): 1 pM | EC50 (CD20 [4]): 23 nM
